In patent publication US20250262210A1 (TRUSTEES OF COLUMBIA UNIVERSITY IN THE CITY OF NEW YORK, published 2025):

Assays:
Test in all cases: IP/MS, LZTR1 R810W-FLAG, U87
TRIO = TRIO (human, UniProt O75962 1-3097, limits assumed)
Procedure, shortened: (§1)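 Extracted peptides in 3% acetonitrile/0.1% formic acid ran on a 50 cm C18 column into an Orbitrap Fusion, with MaxQuant identification and spectral counting.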

ELP1 = molecular target: T1, ELP1 (human, UniProt O95163 1-1332)
T1 sequence (looked up): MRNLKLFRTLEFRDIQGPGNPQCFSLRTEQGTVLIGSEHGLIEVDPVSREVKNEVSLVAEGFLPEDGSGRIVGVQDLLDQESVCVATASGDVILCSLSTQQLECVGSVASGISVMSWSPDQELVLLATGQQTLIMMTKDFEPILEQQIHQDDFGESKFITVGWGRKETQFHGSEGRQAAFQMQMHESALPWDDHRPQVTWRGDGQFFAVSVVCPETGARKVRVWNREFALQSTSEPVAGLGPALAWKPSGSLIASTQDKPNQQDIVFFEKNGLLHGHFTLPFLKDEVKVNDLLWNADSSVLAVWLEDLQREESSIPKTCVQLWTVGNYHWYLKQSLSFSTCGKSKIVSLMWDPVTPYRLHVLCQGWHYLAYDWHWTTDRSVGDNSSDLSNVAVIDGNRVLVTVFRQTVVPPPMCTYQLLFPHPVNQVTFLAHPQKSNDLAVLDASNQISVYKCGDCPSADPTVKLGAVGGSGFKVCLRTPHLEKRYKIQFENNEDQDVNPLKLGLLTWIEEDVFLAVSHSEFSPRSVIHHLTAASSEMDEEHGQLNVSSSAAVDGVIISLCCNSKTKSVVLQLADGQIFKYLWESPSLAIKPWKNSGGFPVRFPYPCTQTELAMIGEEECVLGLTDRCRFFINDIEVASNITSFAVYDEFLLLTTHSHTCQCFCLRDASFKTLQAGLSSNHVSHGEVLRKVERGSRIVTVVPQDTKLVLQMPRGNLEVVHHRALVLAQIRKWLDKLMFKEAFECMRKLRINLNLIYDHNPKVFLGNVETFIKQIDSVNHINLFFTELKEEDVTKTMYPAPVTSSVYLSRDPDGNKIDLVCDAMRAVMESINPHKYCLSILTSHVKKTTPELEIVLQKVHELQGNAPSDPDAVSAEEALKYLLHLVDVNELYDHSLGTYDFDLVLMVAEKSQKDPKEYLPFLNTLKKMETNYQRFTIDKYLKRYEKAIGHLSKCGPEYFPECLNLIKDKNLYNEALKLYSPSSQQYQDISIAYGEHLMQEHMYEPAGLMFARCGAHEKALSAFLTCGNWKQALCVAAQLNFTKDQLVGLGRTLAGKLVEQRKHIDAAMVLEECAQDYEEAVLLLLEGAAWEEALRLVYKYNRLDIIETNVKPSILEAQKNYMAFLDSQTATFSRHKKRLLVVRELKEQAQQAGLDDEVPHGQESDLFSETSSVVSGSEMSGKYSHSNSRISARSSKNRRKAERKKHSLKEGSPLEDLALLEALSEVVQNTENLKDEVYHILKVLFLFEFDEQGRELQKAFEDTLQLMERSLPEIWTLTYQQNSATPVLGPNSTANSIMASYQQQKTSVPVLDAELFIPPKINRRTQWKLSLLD
Procedure, shortened: as §1

DPP9 = DPP9 (human, UniProt Q86TI2 2-863, limits assumed)
DPP9, sequence (Q86TI2 2-863 limits assumed): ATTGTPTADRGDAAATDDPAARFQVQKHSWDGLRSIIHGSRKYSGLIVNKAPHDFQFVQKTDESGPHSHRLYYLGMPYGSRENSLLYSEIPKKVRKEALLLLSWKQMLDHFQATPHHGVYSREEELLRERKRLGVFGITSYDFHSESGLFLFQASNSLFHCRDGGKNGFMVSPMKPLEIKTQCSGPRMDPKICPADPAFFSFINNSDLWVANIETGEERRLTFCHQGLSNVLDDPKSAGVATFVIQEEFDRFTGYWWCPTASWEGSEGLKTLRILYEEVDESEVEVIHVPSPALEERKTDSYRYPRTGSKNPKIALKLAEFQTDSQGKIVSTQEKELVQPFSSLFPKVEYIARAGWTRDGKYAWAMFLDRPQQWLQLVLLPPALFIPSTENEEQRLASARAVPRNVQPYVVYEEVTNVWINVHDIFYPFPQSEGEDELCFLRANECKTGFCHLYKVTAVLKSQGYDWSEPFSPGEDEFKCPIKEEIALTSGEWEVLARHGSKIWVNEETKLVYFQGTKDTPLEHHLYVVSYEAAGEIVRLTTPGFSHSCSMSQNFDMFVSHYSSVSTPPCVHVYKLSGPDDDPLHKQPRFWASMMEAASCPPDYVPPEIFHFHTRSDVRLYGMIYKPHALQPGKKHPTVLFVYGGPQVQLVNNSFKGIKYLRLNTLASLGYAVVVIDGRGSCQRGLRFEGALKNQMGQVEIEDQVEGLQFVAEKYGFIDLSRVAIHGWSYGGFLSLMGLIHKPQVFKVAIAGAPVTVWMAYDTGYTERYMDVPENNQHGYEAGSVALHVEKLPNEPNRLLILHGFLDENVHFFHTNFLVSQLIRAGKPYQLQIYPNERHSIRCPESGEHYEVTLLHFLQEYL
Procedure, shortened: as §1

Measured: binding result

B1: LZTR1 R810W-FLAG (other, human, UniProt Q8N653 1-840, looked up)
chain: MAGPGSTGGQIGAAALAGGARSKVAPSVDFDHSCSDSVEYLTLNFGPFETVHRWRRLPPCDEFVGARRSKHTVVAYKDAIYVFGGDNGKTMLNDLLRFDVKDCSWCRAFTTGTPPAPRYHHSAVVYGSSMFVFGGYTGDIYSNSNLKNKNDLFEYKFATGQWTEWKIEGRLPVARSAHGATVYSDKLWIFAGYDGNARLNDMWTIGLQDRELTCWEEVAQSGEIPPSCCNFPVAVCRDKMFVFSGQSGAKITNNLFQFEFKDKTWTRIPTEHLLRGSPPPPQRRYGHTMVAFDRHLYVFGGAADNTLPNELHCYDVDFQTWEVVQPSSDSEVGGAEVPERACASEEVPTLTYEERVGFKKSRDVFGLDFGTTSAKQPTQPASELPSGRLFHAAAVISDAMYIFGGTVDNNIRSGEMYRFQFSCYPKCTLHEDYGRLWESRQFCDVEFVLGEKEECVQGHVAIVTARSRWLRRKITQARERLAQKLEQEAAPVPREAPGVAAGGARPPLLHVAIREAEARPFEVLMQFLYTDKIKYPRKGHVEDVLLIMDVYKLALSFQLCRLEQLCRQYIEASVDLQNVLVVCESAARLQLSQLKEHCLNFVVKESHFNQVIMMKEFERLSSPLIVEIVRRKQQPPPRTPLDQPVDIGTSLIQDMKAYLEGAGAEFCDITLLLDGHPRPAHKAILAARSSYFEAMFRSFMPEDGQVNISIGEMVPSRQAFESMLRYIYYGEVNMPPEDSLYLFAAPYYYGFYNNRLQAYCKQNLEMNVTVQNVLQILEAADKTQALDMKRHCLHIIVHQFTKVSKLPTLWSLSQQLLLDIIDSLASHISDKQCAELGADI
notes: Stably expressed in U87 cells by lentivirus; also called LZTR1-FLAG-R810W; LZTR1 RW; not shown: FLAG tag
binds: all assays above
